Laboratory results taken from paper PMC9407390 (Proceedings of the National Academy of Sciences of the …, 2022).

Target: the molecule itself
Experiment: crystal structure

B1: soluble C terminus (soluble domain, residues 343 to 882) of Medicago truncatula DMI1 (domain or fragment)
chain: SEVIERNHVLILGWSDKLGSLLKQLAIANKSVGGGVIVVLAEKEKEEMEMDIAKLEFDFMGTSVICRSGSPLILADLKKVSVSKARAIIVLAADENADQSDARALRVVLSLAGVKEGLRGHVVVEMSDLDNEPLVKLVGGELIETVVAHDVIGRLMIQCALQPGLAQIWEDILGFENAEFYIKRWPELDDLLFKDILISFPDAIPCGVKVAADGGKIVINPDDNYVLRDGDEVLVIAEDDDTYAPGPLPEVRKGYFPRIRDPPKYPEKILFCGWRRDIDDMIMVLEAFLAPGSELWMFNEVPEKERERKLAAGELDVFGLENIKLVHREGNAVIRRHLESLPLETFDSILILADESVEDSVAHSDSRSLATLLLIRDIQSRRLPYRDTKSTSLRLSGFSHNSWIREMQQASDKSIIISEILDSRTRNLVSVSRISDYVLSNELVSMALAMVAEDKQINRVLEELFAEEGNEMCIKPAEFYLFDQEELCFYDIMIRGRTRKEIVIGYRLANQERAIINPSEKSVPRKWSLDDVFVVLASGE
- stoichiometry N: 4
